Measured values: US20260116951A1

Key:
[1] = target: Recombinant Human CD200R, His-tagged (Creative Biomart CD200R1-320H) (human) (UniProt Q8TD46); assay: SPR (BIAcore), DS-155 captured (0.5 ug/mL), HuCD200R1 flowed at 500 nM to 31.25 nM, 25 C, 1:1 Binding model, run 2
[2] = target: Recombinant Human CD200R, His-tagged (Creative Biomart CD200R1-320H) (human) (UniProt Q8TD46); assay: SPR, CD200R flowed over immobilized CD200-Fc, 25 C, 1:1 fit, mean of 2 experiments with standard deviation
[3] = target: Recombinant Cyno CD200R, His-tagged (Creative Biomart CD200R1-3483C) (cynomolgus monkey); assay: SPR, cyno CD200R1 flowed over immobilized CD200-Fc, 25 C, 1:1 fit, mean of 2 experiments with standard deviation
[4] = target: Recombinant Cyno CD200R, His-tagged (Creative Biomart CD200R1-3483C) (cynomolgus monkey); assay: SPR (BIAcore T200), CD200-Fc captured on anti-human Fc, cyno CD200R flowed, 25 C, 1:1 fit
[5] = target: Recombinant Cyno CD200R, His-tagged (Creative Biomart CD200R1-3483C) (cynomolgus monkey); assay: SPR (BIAcore), DS-155 captured (0.5 ug/mL), CynoCD200R1 flowed at 1000 nM to 62.5 nM, 25 C, 1:1 Binding model, run 2
[6] = target: Recombinant Cyno CD200R, His-tagged (Creative Biomart CD200R1-3483C) (cynomolgus monkey); assay: SPR (BIAcore T200), CD200-Fc captured on anti-human Fc, cyno CD200R flowed, 25 C, 1:1 fit, mean of two runs
[7] = target: Human CD200R, full length, on transduced U937 cells (U937-CD200R) (human) (UniProt Q8TD46); assay: cell-based or functional assay
[8] = target: Recombinant Cyno CD200R, His-tagged (Creative Biomart CD200R1-3483C) (cynomolgus monkey); assay: SPR, cyno CD200R1 flowed over immobilized CD200-Fc, 25 C, 1:1 fit
[9] = target: Recombinant Human CD200R, His-tagged (Creative Biomart CD200R1-320H) (human) (UniProt Q8TD46); assay: SPR (BIAcore T200), CD200-Fc captured on anti-human Fc, CD200R flowed, 25 C, 1:1 fit
[10] = target: Recombinant Human CD200R, His-tagged (Creative Biomart CD200R1-320H) (human) (UniProt Q8TD46); assay: SPR (BIAcore), DS-155 captured (0.5 ug/mL), HuCD200R1 flowed at 500 nM to 31.25 nM, 25 C, 1:1 Binding model, run 1
[11] = target: Recombinant Cyno CD200R, His-tagged (Creative Biomart CD200R1-3483C) (cynomolgus monkey); assay: SPR (BIAcore), DS-155 captured (0.5 ug/mL), CynoCD200R1 flowed at 1000 nM to 62.5 nM, 25 C, 1:1 Binding model, run 1
[12] = target: Recombinant Human CD200R, His-tagged (Creative Biomart CD200R1-320H) (human) (UniProt Q8TD46); assay: SPR (BIAcore T200), CD200-Fc captured on anti-human Fc, CD200R flowed, 25 C, 1:1 fit, mean of two runs
[13] = target: Recombinant Human CD200R, His-tagged (Creative Biomart CD200R1-320H) (human) (UniProt Q8TD46); assay: SPR, CD200R flowed over immobilized CD200-Fc, 25 C, 1:1 fit

Chain of Recombinant Human CD200R, His-tagged (Creative Biomart CD200R1-320H) (human) (Q8TD46 27-266 limits assumed): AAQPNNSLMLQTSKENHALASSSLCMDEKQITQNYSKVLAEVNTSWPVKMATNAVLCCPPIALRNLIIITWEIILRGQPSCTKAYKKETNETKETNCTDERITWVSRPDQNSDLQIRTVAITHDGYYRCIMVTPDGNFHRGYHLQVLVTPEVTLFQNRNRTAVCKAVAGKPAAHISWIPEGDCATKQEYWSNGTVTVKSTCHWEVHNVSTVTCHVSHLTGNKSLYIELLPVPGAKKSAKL
Chain of Human CD200R, full length, on transduced U937 cells (U937-CD200R) (human) (Q8TD46 25-348): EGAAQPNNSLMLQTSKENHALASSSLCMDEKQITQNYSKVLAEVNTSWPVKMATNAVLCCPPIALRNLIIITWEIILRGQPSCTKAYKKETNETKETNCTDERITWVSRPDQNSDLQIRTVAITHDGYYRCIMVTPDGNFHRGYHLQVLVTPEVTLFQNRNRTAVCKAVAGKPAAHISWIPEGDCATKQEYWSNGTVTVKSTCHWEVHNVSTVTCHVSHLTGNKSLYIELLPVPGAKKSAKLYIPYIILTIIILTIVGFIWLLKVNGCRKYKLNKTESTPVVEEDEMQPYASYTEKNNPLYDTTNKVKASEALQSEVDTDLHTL

“DS-155 (wild-type human CD200-Fc, IgG4 S228P Fc) (from UniProt P41217 31-232) (Fc fusion)” was tested, and the Kd [1] was 183 nM, the kon [1] was 180000 M⁻¹ s⁻¹ and the Kd [2] was 179 nM. The Kd [3] was 971 nM, the t½ [4] was 11.8 s and the Kd [5] was 1050 nM. The koff [5] was 0.0608 s⁻¹, the kon [5] was 57600 M⁻¹ s⁻¹ and the Kd [6] was 971 nM. It also gave a koff [6] of 0.0586 s⁻¹, a kon [6] of 60600 M⁻¹ s⁻¹ and an inhibition of LPS stimulated IL-6 release from U937-CD200R cells, IC50 [7] of 0.18 µg/mL. It also gave a T1/2 [8] of 11.8 s, a t½ [9] of 21.1 s and a Kd [10] of 174 nM. It also gave a koff [10] of 0.0324 s⁻¹, a kon [10] of 186000 M⁻¹ s⁻¹ and a Kd [11] of 888 nM. For the same substance, the koff [11] was 0.0564 s⁻¹, the kon [11] was 63500 M⁻¹ s⁻¹ and the Kd [12] was 179 nM. For the same substance, the koff [12] was 0.0326 s⁻¹, the kon [12] was 183000 M⁻¹ s⁻¹ and the T1/2 [13] was 21.1 s.
